Test results taken from patent publication US20150218251A1 (NATIONAL CHENG KUNG UNIVERSITY, published 2015).
Read-outs that look alike come from different tables or passages of the source.

What was measured:
[1] = molecular target: T1, integrin αvβ3 (UniProt P06756 31-1048; P05106 27-788); test: cell adhesion inhibition assay (Table 5)
T1 construct: whole, on cells; also called CHO-αvβ3
Experimental: (§1) Briefly, 96-well Immulon-2 microtiter plates (Costar, Corning, N.Y.) were coated with 100 μl of phosphate-buffered saline (PBS: 10 mM phosphate buffer, 0.15M NaCl, pH 7.4) containing substrates at a concentration of 50-500 nM, and incubated overnight at 4° C. […] Non-specific protein binding sites were blocked by incubating each well with 200 μl of heat-denatured 1% bovine serum albumin (BSA, Calbiochem) at room temperature (25° C.) for 1.5 hr. Afterwards, the blocking heat-denatured BSA was discarded and each well was washed twice with 200 μl of PBS.
(§2) Chinese hamster ovary (CHO) cells expressing αvβ3 (CHO-αvβ3) and α5β1 (CHO-α5β1) integrins were maintained in 100 μl of Dulbecco's Modified Eagle's Medium (DMEM) medium. Both CHO-αvβ3 and CHO-α5β1 were kind gifts of Dr. Y. Takada (Scripps Research Institute) established by stable transfection with a neomycin-resistant gene. CHO cells growing in log phase were detached by trypsinization and used in the assay at 3×10⁵ cells/ml. FNIII 9-10, FNIII 10 and variants thereof were added to the cultured cells at the concentrations of 0.001-500 μM and incubated at 37° C. in 5% CO₂ for 15 minutes. […]
(§3) Bound cells were quantified by crystal violet staining. […] The resulting absorbance was read at 600 nm and the readings were correlated with the number of adhering cells.

[2] = molecular target: T2, integrin αIIbβ3 (UniProt P08514 32-1039; P05106 27-788); test: cell adhesion inhibition assay (Table 5)
T2 construct: whole, on cells
Experimental: as §1, §2, §3

[3] = molecular target: T1, integrin αvβ3; test: cell-based or functional assay
[4] = molecular target: T2, integrin αIIbβ3; test: cell-based or functional assay
[5] = molecular target: T3, integrin α5β1 (UniProt P08648 42-1049; P05556 21-798); test: cell-based or functional assay
[6] = molecular target: T2, integrin αIIbβ3; test: cell adhesion inhibition assay (Table 4)
Experimental: as §1
(§4) Chinese hamster ovary (CHO) cells expressing αvβ3 (CHO-αvβ3) and α5β1 (CHO-α5β1) integrins were maintained in 100 μl of Dulbecco's Modified Eagle's Medium (DMEM) medium. Both CHO-αvβ3 and CHO-α5β1 were kind gifts of Dr. Y. Takada (Scripps Research Institute) established by stable transfection with a neomycin-resistant gene. CHO cells growing in log phase were detached by trypsinization and used in the assay at 3×10⁵ cells/ml. FNIII 9-10, FNIII 10 and variants thereof were added to the cultured cells at the concentrations of 0.001-500 μM and incubated at 37° C. in 5% CO₂ for 15 minutes. The treated cells were then added into the coated plate and incubated at 37° C. in 5% CO₂ for 1 hour. The incubation solution was then discarded and non-adhered cells were removed by washing twice with 200 μl PBS.
(§5) Bound cells were quantified by crystal violet staining. Briefly, the well was fixed with 100 μl of 10% formalin for 10 minutes and dried. Fifty microliters of 0.05% crystal violet were then added into the well at room temperature for 20 minutes. Each well was washed with 200 μl of distilled water four times and dried. Colorization was carried out by adding 150 μl of colorizing solution (50% alcohol and 0.1% acetic acid). The resulting absorbance was read at 600 nm and the readings were correlated with the number of adhering cells.

[7] = molecular target: T1, integrin αvβ3; test: cell-based or functional assay; remark: listed apart in the source
[8] = molecular target: T2, integrin αIIbβ3; test: cell-based or functional assay; remark: listed apart in the source
[9] = molecular target: T3, integrin α5β1; test: cell-based or functional assay; remark: listed apart in the source
[10] = molecular target: T1, integrin αvβ3; test: cell adhesion inhibition assay (Table 4)
Experimental: as §1, §4, §5

T3 sequence (P08648 42-1049, chain 1 of 2): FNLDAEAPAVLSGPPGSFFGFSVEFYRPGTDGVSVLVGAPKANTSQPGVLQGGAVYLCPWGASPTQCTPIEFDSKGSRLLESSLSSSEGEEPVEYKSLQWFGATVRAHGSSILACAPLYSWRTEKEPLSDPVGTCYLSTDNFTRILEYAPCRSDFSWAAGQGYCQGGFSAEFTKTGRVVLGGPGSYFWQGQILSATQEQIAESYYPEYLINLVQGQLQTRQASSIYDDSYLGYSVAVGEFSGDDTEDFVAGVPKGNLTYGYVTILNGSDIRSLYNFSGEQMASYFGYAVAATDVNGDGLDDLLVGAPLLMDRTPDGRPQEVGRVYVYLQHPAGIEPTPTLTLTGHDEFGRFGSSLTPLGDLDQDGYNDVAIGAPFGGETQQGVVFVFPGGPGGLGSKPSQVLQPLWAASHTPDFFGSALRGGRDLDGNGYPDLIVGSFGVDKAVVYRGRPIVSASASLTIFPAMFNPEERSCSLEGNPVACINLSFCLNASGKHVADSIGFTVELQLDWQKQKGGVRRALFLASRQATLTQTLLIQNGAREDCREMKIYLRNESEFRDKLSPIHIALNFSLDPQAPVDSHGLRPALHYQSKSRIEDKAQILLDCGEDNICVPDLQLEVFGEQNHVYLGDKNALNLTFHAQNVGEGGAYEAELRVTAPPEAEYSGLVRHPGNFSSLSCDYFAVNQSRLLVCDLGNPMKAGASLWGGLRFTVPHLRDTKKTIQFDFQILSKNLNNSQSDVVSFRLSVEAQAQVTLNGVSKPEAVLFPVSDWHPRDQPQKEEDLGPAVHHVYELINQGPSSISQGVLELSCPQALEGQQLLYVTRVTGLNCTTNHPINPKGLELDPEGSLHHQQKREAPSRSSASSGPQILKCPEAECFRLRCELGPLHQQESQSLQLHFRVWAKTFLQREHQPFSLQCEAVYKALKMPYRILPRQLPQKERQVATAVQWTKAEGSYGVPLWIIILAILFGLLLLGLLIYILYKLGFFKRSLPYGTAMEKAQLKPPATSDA
T3 sequence (P05556 21-798, chain 2 of 2): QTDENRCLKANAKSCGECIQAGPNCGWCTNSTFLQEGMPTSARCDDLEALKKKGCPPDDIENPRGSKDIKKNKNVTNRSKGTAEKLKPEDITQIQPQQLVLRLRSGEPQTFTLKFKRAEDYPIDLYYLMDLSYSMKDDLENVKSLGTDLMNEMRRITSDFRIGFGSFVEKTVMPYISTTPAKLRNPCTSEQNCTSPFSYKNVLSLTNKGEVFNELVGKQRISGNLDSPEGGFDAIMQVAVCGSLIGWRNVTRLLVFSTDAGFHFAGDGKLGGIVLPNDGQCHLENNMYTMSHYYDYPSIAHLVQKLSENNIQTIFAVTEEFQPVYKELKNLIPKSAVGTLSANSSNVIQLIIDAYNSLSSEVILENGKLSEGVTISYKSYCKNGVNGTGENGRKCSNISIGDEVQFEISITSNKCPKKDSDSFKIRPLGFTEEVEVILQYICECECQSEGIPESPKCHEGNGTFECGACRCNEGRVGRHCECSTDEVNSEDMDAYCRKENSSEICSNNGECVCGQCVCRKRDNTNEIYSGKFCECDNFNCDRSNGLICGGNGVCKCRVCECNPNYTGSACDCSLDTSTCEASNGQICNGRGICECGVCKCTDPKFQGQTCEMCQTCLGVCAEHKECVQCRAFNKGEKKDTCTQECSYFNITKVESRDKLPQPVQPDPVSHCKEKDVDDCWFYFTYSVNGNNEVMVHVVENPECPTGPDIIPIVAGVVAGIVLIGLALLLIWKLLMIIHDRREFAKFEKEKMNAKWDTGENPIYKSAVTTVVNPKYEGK
T1 sequence (P06756 31-1048, chain 1 of 2): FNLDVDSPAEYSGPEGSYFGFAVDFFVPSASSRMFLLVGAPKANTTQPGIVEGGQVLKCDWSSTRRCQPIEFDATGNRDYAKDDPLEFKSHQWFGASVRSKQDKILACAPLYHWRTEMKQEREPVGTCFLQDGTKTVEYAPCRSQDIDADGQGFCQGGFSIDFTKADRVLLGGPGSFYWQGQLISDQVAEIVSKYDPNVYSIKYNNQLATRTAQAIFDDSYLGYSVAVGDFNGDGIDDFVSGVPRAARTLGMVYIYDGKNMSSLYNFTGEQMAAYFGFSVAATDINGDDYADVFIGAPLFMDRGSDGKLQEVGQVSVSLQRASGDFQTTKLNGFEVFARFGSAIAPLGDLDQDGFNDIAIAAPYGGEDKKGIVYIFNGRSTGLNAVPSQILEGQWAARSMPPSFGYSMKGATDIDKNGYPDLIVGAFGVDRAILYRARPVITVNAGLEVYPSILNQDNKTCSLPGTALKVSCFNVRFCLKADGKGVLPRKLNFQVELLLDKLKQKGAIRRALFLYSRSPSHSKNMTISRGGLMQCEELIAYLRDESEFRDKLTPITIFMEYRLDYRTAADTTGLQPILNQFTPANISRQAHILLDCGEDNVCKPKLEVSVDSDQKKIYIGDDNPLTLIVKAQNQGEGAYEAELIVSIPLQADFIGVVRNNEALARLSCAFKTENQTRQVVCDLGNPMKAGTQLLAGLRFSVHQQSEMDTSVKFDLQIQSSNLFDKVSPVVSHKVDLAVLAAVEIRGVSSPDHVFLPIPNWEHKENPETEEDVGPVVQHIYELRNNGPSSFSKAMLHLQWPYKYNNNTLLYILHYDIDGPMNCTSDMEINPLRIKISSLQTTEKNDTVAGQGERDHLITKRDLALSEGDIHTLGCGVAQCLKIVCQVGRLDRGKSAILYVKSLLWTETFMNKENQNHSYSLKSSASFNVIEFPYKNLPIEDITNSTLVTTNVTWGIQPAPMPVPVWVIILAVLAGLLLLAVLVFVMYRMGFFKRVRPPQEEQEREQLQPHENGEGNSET
T1 sequence (P05106 27-788, chain 2 of 2): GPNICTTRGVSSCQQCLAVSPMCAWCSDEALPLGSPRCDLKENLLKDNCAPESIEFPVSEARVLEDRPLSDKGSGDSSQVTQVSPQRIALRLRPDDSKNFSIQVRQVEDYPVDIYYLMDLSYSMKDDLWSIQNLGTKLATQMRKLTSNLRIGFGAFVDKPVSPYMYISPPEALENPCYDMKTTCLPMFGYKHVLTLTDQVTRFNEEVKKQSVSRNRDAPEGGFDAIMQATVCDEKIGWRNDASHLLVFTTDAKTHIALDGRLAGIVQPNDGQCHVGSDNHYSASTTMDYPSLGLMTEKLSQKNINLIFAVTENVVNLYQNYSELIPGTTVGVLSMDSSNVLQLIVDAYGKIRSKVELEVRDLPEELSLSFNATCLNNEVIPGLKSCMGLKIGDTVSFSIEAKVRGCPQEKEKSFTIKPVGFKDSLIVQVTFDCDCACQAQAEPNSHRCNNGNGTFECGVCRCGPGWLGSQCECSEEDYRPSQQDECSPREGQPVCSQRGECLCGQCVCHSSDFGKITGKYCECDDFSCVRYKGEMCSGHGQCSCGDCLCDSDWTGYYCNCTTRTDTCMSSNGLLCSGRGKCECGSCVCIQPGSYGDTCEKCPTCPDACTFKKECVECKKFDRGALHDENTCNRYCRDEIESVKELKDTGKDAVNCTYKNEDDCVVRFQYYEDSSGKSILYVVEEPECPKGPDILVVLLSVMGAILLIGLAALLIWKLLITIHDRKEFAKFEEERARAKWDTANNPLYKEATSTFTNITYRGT
T2 sequence (P08514 32-1039, chain 1 of 2): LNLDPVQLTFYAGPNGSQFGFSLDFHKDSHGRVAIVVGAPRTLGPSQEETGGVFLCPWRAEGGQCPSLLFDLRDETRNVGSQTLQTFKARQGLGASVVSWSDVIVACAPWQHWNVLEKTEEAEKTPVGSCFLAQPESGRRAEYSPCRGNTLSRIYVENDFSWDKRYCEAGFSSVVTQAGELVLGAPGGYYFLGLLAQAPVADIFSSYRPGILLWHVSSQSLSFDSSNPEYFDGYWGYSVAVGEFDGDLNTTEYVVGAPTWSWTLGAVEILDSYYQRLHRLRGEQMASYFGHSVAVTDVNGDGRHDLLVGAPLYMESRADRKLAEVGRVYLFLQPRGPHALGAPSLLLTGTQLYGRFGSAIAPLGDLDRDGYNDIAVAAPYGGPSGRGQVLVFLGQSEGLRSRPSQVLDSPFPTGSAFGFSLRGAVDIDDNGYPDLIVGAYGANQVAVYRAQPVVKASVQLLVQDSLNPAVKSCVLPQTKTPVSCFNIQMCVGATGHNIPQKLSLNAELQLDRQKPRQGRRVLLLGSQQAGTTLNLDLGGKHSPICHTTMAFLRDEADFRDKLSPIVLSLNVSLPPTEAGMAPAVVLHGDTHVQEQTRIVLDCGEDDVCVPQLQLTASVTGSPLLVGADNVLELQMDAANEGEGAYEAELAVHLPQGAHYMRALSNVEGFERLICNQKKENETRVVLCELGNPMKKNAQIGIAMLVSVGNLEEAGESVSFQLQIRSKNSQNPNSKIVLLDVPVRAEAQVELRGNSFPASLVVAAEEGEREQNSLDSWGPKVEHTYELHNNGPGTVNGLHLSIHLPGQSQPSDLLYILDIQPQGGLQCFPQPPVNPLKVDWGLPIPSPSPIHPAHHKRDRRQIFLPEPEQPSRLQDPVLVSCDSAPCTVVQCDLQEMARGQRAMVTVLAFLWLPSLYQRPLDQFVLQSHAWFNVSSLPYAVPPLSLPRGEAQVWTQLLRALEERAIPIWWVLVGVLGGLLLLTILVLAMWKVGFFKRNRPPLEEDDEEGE
T2 sequence (P05106 27-788, chain 2 of 2): as the sequence (P05106 27-788, chain 2 of 2) above

B1: Wild type FNIII 9-10 (SEQ ID NO: 4) (ligand)
chain: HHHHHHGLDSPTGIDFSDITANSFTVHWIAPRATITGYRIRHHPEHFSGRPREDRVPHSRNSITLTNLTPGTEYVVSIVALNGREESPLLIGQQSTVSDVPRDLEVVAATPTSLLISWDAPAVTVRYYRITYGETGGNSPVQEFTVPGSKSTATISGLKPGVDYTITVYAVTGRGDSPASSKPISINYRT
notes: exact N-terminus uncertain; also called Wild-type human FN III 9-10; Control
- binding result [1]: no binding (tested: >3119 nM)
- binding result [2]: no binding (tested: >4798 nM)
- IC50, cell adhesion assay [3]: > 3.12 µM
- percentage of inhibition, cell adhesion assay [3]: 33.2%
- IC50, cell adhesion assay [4]: > 4.8 µM
- IC50, inhibition of ADP-induced platelet aggregation [4]: ~20 µM
- percentage of inhibition, cell adhesion assay [4]: 0%
- IC50, cell adhesion assay [5]: 0.245 µM

B2: Wild type FNIII 10 (SEQ ID NO: 2, …) (ligand)
chain: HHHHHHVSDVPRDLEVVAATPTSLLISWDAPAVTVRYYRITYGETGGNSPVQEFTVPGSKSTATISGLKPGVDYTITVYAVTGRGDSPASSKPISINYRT
notes: also called FNIII 10 wild type; human fibronectin type III domain module 10
- binding result [6]: no binding (tested: >9180 nM)
- IC50, cell adhesion assay [7]: 4.58 µM
- IC50, cell adhesion assay [8]: > 9.18 µM
- IC50, inhibition of ADP-induced platelet aggregation [8]: ~45 µM
- percentage of inhibition, cell adhesion assay [8]: 0%
- IC50, cell adhesion assay [9]: > 4.59 µM
- percentage of inhibition, cell adhesion assay [9]: 39%

B3: FNIII 10 C-X7-C (SEQ ID NO: 10, VCARGDNPDCSK) (designed binder)
chain: HHHHHHVSDVPRDLEVVAATPTSLLISWDAPAVTVRYYRITYGETGGNSPVQEFTVPGSKSTATISGLKPGVDYTITVYAVCARGDNPDCSKPISINYRT
- binding result [6]: no binding (tested: >4546 nM)
- IC50, cell adhesion assay [7]: 0.432 µM
- IC50, cell adhesion assay [8]: > 4.55 µM
- IC50, inhibition of ADP-induced platelet aggregation [8]: > 25.5 µM
- percentage of inhibition, ADP-induced platelet aggregation [8]: 2%
- percentage of inhibition, cell adhesion assay [8]: 0%
- IC50, cell adhesion assay [9]: > 4.55 µM
- percentage of inhibition, cell adhesion assay [9]: 0%

B4: FNIII 10 C-X7-C (SEQ ID NO: 6, VCPRGDMPDCSK) (designed binder)
chain: HHHHHHVSDVPRDLEVVAATPTSLLISWDAPAVTVRYYRITYGETGGNSPVQEFTVPGSKSTATISGLKPGVDYTITVYAVCPRGDMPDCSKPISINYRT
- fold increase of binding affinity against SEQ ID NO:48 [10]: 7 fold
- binding result [6]: no binding (tested: >62124 nM)
- IC50, cell adhesion assay [7]: 0.093 µM
- IC50, cell adhesion assay [8]: > 62.1 µM
- IC50, inhibition of ADP-induced platelet aggregation [8]: ~62 µM
- percentage of inhibition, cell adhesion assay [8]: 19%
- IC50, cell adhesion assay [9]: > 73.2 µM
- percentage of inhibition, cell adhesion assay [9]: 42%

B5: FNIII 10 C-X7-C (SEQ ID NO: 8, VCPRGDWNECSK) (designed binder)
chain: HHHHHHVSDVPRDLEVVAATPTSLLISWDAPAVTVRYYRITYGETGGNSPVQEFTVPGSKSTATISGLKPGVDYTITVYAVCPRGDWNECSKPISINYRT
notes: Engineered intradomain disulfide bond Cys1491-Cys1499; exact N-terminus uncertain
- binding result [6]: no binding (tested: >4494 nM)
- IC50, cell adhesion assay [7]: 0.418 µM
- IC50, cell adhesion assay [8]: > 4.49 µM
- IC50, inhibition of ADP-induced platelet aggregation [8]: ~10 µM
- percentage of inhibition, cell adhesion assay [8]: 0%
- IC50, cell adhesion assay [9]: > 4.49 µM
- percentage of inhibition, cell adhesion assay [9]: 48%

B6: FNIII 10 variant (SEQ ID NO: 48, VTPRGDMPDSSK) (designed binder)
chain: HHHHHHVSDVPRDLEVVAATPTSLLISWDAPAVTVRYYRITYGETGGNSPVQEFTVPGSKSTATISGLKPGVDYTITVYAVTPRGDMPDSSKPISINYRT
notes: also called FNIII 10 (PRGDMPD) protein; FNIII 10 PRGDMPD variant
- binding result [6]: no binding (tested: >9073 nM)
- IC50, cell adhesion assay [7]: 0.645 µM
- IC50, cell adhesion assay [8]: > 9.07 µM
- IC50, inhibition of ADP-induced platelet aggregation [8]: > 22.2 µM
- percentage of inhibition, ADP-induced platelet aggregation [8]: 4%
- percentage of inhibition, cell adhesion assay [8]: 0%
- IC50, cell adhesion assay [9]: > 6.8 µM
- percentage of inhibition, cell adhesion assay [9]: 31.7%

B7: Control FNIII 10 mutant (SEQ ID NO: 50, VTPRGDWNEGSK) (designed binder)
chain: HHHHHHVSDVPRDLEVVAATPTSLLISWDAPAVTVRYYRITYGETGGNSPVQEFTVPGSKSTATISGLKPGVDYTITVYAVTPRGDWNEGSKPISINYRT
notes: exact N-terminus uncertain; also called FNIII 10 variant
- binding result [6]: no binding (tested: >9027 nM)
- IC50, cell adhesion assay [7]: 0.908 µM
- IC50, cell adhesion assay [8]: > 9.03 µM
- IC50, inhibition of ADP-induced platelet aggregation [8]: > 6.45 µM
- percentage of inhibition, ADP-induced platelet aggregation [8]: 14%
- percentage of inhibition, cell adhesion assay [8]: 0%
- IC50, cell adhesion assay [9]: > 4.51 µM
- percentage of inhibition, cell adhesion assay [9]: 32.5%
